Source: publication PMC3472187, “Crystal structure of HutZ, a heme storage protein from Vibrio cholerae: A structural mismatch observed in the region of high sequence conservation” (BMC Structural Biology, 2012)

Target: the molecule itself
Experiment: SEC

B1: HutZ (residues 13-150, His tagged) (domain or fragment)
chain: RLEPEIKEFRQERKTLQLATVDAQGRPNVSYAPFVQNQEGYFVLISHIARHARNLEVNPQVSIMMIEDETEAKQLFARKRLTFDAVASMVERDSELWCQVIAQMGERFGEIIDGLSQLQDFMLFRLQPEQGLFVKGFG
notes: also called truncated HutZ; source: E. coli BL21 (DE3), purified (Ni-chelating Sepharose, Source 15Q, Superdex-200)
B1 was tested, and the “stoichiometry N” value was 2.
